Assay results as given in patent publication US20140274782A1, “AFFINITY REAGENTS AND METHODS FOR DETECTION, PURIFICATION, AND PROTEOMIC ANALYSIS OF METHYLATED PROTEINS” (The Board of Trustees of the Leland Stanford Junior …, priority 2013, published 2014).

Columns and labels:
[1] = target: SH3YL1 (hit 65), G9a-methylated (human) (UniProt Q96HL8); assay: ProtoArray, G9a array SNR minus GST array SNR
[2] = target: C2orf43, G9a-methylated (human) (UniProt Q9H6V9); assay: ProtoArray, G9a array SNR minus GST array SNR
[3] = target: TMED5, G9a-methylated (human) (UniProt Q9Y3A6); assay: ProtoArray, G9a array SNR minus GST array SNR
[4] = target: CRB3, G9a-methylated (human) (UniProt Q9BUF7); assay: ProtoArray, G9a array SNR minus GST array SNR
[5] = target: CMTM3, G9a-methylated (human) (UniProt Q96MX0); assay: ProtoArray, G9a array SNR minus GST array SNR
[6] = target: NME7, G9a-methylated (human) (UniProt Q9Y5B8); assay: ProtoArray, G9a array SNR minus GST array SNR
[7] = target: NME1, G9a-methylated (human) (UniProt P15531); assay: ProtoArray, G9a array SNR minus GST array SNR
[8] = target: RDH11, G9a-methylated (human) (UniProt Q8TC12); assay: ProtoArray, G9a array SNR minus GST array SNR
[9] = target: GPR108, G9a-methylated (human) (UniProt Q9NPR9); assay: ProtoArray, G9a array SNR minus GST array SNR
[10] = target: C10orf58, G9a-methylated (human) (UniProt Q9BRX8); assay: ProtoArray, G9a array SNR minus GST array SNR
[11] = target: RASSF4, G9a-methylated (human) (UniProt Q9H2L5); assay: ProtoArray, G9a array SNR minus GST array SNR
[12] = target: ARL6IP1, G9a-methylated (human) (UniProt Q15041); assay: ProtoArray, G9a array SNR minus GST array SNR
[13] = target: WDR45, G9a-methylated (human) (UniProt Q9Y484); assay: ProtoArray, G9a array SNR minus GST array SNR
[14] = target: C11orf73, G9a-methylated (human) (UniProt Q53FT3); assay: ProtoArray, G9a array SNR minus GST array SNR
[15] = target: RAB33B, G9a-methylated (human) (UniProt Q9H082); assay: ProtoArray, G9a array SNR minus GST array SNR
[16] = target: CSF3, G9a-methylated (human) (UniProt P09919); assay: ProtoArray, G9a array SNR minus GST array SNR
[17] = target: CA13, G9a-methylated (human) (UniProt Q8N1Q1); assay: ProtoArray, G9a array SNR minus GST array SNR
[18] = target: C12orf62, G9a-methylated (human) (UniProt Q96I36); assay: ProtoArray, G9a array SNR minus GST array SNR
[19] = target: TEAD4, G9a-methylated (human) (UniProt Q15561); assay: ProtoArray, G9a array SNR minus GST array SNR
[20] = target: ACSL4, G9a-methylated (human) (UniProt O60488); assay: ProtoArray, G9a array SNR minus GST array SNR
[21] = target: KRR1, G9a-methylated (human) (UniProt Q13601); assay: ProtoArray, G9a array SNR minus GST array SNR
[22] = target: AP1S1, G9a-methylated (human) (UniProt P61966); assay: ProtoArray, G9a array SNR minus GST array SNR
[23] = target: HS3ST1, G9a-methylated (human) (UniProt O14792); assay: ProtoArray, G9a array SNR minus GST array SNR
[24] = target: SH3YL1 (clone MGC:12275), G9a-methylated (human) (UniProt Q96HL8); assay: ProtoArray, G9a array SNR minus GST array SNR
[25] = target: MGC10433 (RNA-binding protein 42), G9a-methylated (human) (UniProt Q9BTD8); assay: ProtoArray, G9a array SNR minus GST array SNR
[26] = target: CAB39L, G9a-methylated (human) (UniProt Q9H9S4); assay: ProtoArray, G9a array SNR minus GST array SNR
[27] = target: C12orf60, G9a-methylated (human) (UniProt Q5U649); assay: ProtoArray, G9a array SNR minus GST array SNR
[28] = target: PPIL5, G9a-methylated (human) (UniProt Q96L50); assay: ProtoArray, G9a array SNR minus GST array SNR
[29] = target: PPARG-peroxisome proliferator-activated receptor gamma (PPARG), transcript variant 4 (human) (UniProt P37231); assay: ProtoArray, GST-treated control array
[30] = target: LARP6-La ribonucleoprotein domain family, member 6 (LARP6), transcript variant 2 (human) (UniProt Q9BRS8); assay: ProtoArray, GST-treated control array
[31] = target: ACSL4-acyl-CoA synthetase long-chain family member 4 (ACSL4), transcript variant 2 (human) (UniProt O60488); assay: ProtoArray, GST-treated control array
[32] = target: CALN1-calneuron 1 (CALN1), transcript variant 1 (human) (UniProt Q9BXU9); assay: ProtoArray, GST-treated control array
[33] = target: PAEP-progestagen-associated endometrial protein (placental protein 14, pregnancy-associated endometrial alpha-2-globulin, alpha uterine protein), transcript variant 2 (PAEP) (human) (UniProt P09466); assay: ProtoArray, GST-treated control array
[34] = target: AP1S1-adaptor-related protein complex 1, sigma 1 subunit (AP1S1), transcript variant 1 (human) (UniProt P61966); assay: ProtoArray, GST-treated control array
[35] = target: WDR45-WD repeat domain 45 (WDR45), transcript variant 1 (human) (UniProt Q9Y484); assay: ProtoArray, GST-treated control array
[36] = target: DNTT-deoxynucleotidyltransferase, terminal (DNTT), transcript variant 1 (human) (UniProt P04053); assay: ProtoArray, GST-treated control array
[37] = target: T1, TMEM32-transmembrane protein 32 (TMEM32) (human) (UniProt Q8N4V1); assay: ProtoArray, GST-treated control array
T1 sequence (looked up): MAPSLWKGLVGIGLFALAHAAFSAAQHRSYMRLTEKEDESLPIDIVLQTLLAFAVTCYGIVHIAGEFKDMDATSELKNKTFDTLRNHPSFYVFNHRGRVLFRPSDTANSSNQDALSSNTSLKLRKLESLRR

3× Flag-3×MBT (designed binder), sequence (chain): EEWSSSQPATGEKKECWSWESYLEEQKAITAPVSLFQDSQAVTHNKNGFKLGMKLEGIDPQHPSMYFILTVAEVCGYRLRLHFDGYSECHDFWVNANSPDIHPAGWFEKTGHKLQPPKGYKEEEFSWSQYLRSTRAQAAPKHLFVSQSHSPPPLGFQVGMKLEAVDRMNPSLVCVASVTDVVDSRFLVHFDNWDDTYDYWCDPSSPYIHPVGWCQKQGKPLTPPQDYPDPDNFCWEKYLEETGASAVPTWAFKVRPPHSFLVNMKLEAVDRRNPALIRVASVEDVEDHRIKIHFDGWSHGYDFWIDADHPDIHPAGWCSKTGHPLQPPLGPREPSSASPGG
WDR45-WD repeat domain 45 (WDR45), transcript variant 1 (human), sequence (Q9Y484 other isoform, or with tags, fused parts or gaps mutant): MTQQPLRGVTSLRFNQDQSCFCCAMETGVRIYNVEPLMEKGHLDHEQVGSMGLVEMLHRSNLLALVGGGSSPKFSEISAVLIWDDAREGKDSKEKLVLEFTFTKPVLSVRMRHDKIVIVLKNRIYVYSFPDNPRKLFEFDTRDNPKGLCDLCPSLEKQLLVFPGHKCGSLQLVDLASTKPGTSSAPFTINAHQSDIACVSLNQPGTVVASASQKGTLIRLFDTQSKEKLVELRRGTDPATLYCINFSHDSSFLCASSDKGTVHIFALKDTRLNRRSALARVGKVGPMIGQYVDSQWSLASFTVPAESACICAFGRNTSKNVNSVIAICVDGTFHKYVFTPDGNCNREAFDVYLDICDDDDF
WDR45, G9a-methylated (human), sequence (Q9Y484 other isoform, or with tags, fused parts or gaps limits assumed): as the sequence (Q9Y484 other isoform, or with tags, fused parts or gaps mutant) above
C12orf60, G9a-methylated (human), sequence (Q5U649 whole entry): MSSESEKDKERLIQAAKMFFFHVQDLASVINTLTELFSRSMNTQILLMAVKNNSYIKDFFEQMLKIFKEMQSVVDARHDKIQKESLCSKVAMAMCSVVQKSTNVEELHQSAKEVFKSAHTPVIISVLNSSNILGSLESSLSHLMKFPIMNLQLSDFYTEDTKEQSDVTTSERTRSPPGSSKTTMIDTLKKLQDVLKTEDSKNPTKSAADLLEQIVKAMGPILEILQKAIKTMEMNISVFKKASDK
NME7, G9a-methylated (human), sequence (Q9Y5B8 37-376 limits assumed): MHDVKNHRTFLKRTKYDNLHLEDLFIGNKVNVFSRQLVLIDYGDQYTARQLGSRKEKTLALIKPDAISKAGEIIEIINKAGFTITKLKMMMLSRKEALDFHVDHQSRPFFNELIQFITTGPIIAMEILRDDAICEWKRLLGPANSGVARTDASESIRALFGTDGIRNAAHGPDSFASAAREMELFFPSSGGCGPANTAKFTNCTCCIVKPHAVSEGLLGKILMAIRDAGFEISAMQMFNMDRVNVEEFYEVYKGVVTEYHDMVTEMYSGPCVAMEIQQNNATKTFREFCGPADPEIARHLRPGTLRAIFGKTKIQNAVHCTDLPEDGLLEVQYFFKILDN
RAB33B, G9a-methylated (human), sequence (Q9H082 whole entry): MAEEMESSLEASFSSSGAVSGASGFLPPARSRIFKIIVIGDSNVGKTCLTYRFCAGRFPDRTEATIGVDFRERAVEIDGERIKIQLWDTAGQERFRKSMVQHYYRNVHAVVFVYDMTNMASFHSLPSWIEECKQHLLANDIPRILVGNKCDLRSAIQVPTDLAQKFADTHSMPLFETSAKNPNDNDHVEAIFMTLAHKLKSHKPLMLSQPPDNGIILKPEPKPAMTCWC
AP1S1-adaptor-related protein complex 1, sigma 1 subunit (AP1S1), transcript variant 1 (human), sequence (P61966 whole entry, change not shown, the tested form may be a part, one chain of several): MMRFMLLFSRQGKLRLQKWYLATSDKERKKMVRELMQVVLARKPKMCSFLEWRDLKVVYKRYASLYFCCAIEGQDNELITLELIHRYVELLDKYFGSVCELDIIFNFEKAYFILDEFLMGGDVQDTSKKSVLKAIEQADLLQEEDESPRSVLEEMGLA
AP1S1, G9a-methylated (human), sequence (P61966 whole entry): as the sequence (P61966 whole entry, change not shown, the tested form may be a part, one chain of several) above
PPIL5, G9a-methylated (human), sequence (Q96L50 whole entry): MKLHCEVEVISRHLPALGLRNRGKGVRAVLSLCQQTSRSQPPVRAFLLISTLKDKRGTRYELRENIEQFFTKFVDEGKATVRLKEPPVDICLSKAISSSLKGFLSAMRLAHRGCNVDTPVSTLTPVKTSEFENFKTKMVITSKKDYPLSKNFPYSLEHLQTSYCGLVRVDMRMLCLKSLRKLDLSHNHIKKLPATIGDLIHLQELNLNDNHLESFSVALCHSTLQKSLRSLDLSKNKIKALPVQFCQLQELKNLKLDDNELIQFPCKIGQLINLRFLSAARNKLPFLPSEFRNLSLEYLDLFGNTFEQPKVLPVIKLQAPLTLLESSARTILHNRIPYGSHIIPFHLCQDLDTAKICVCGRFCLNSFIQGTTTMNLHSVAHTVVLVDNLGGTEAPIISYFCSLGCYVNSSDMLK
LARP6-La ribonucleoprotein domain family, member 6 (LARP6), transcript variant 2 (human), sequence (Q9BRS8 other isoform, or with tags, fused parts or gaps mutant): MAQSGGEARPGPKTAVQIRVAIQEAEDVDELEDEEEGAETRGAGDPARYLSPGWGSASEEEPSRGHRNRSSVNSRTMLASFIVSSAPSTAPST
C12orf62, G9a-methylated (human), sequence (Q96I36 whole entry): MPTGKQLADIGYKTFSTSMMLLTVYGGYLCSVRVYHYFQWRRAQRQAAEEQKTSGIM
CSF3, G9a-methylated (human), sequence (P09919 31-207 limits assumed): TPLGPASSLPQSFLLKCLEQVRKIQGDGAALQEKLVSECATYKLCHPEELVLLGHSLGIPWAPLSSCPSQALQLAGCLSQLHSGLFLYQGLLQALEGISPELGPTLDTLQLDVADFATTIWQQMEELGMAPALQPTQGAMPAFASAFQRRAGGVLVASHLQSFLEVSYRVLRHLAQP
PPARG-peroxisome proliferator-activated receptor gamma (PPARG), transcript variant 4 (human), sequence (P37231 29-505, change not shown): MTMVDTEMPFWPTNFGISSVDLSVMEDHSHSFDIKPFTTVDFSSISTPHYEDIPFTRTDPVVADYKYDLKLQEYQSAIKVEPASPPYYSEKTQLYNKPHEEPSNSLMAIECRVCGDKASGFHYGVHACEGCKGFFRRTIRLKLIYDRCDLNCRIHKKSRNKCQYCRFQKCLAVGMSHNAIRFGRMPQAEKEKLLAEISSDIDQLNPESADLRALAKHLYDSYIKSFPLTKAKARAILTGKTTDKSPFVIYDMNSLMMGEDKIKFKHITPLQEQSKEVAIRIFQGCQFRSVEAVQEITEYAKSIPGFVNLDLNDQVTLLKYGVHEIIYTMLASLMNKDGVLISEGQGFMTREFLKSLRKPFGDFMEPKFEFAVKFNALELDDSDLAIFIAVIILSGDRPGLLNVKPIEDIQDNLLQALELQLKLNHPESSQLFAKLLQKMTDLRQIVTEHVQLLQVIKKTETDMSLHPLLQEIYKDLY
RASSF4, G9a-methylated (human), sequence (Q9H2L5 whole entry): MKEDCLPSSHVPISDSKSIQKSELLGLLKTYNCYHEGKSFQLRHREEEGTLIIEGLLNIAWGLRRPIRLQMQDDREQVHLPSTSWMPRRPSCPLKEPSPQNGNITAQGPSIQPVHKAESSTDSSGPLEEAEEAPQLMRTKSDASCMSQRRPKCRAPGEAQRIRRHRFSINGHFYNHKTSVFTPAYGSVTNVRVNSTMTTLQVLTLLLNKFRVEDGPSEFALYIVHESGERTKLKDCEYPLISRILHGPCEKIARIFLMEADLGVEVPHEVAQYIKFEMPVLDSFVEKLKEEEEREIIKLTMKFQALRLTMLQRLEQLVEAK
CMTM3, G9a-methylated (human), sequence (Q96MX0 whole entry): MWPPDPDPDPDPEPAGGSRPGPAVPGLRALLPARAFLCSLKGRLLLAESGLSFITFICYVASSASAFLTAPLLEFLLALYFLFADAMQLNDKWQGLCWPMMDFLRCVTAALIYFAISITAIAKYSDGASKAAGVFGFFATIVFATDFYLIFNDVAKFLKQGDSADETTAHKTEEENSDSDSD
ARL6IP1, G9a-methylated (human), sequence (Q15041 whole entry): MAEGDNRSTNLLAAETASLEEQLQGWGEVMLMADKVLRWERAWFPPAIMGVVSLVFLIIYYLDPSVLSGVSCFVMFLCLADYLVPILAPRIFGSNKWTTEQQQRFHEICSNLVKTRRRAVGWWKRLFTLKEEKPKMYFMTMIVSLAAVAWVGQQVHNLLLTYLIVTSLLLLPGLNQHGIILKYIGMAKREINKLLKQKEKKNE
CA13, G9a-methylated (human), sequence (Q8N1Q1 whole entry): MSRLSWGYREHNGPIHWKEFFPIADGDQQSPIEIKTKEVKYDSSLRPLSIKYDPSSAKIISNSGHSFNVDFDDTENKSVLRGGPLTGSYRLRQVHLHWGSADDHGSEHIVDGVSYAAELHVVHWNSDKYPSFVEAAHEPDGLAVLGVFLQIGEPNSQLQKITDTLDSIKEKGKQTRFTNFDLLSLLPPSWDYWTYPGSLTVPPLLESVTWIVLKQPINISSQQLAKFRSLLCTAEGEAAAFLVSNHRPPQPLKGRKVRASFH
CALN1-calneuron 1 (CALN1), transcript variant 1 (human), sequence (Q9BXU9 whole entry, change not shown): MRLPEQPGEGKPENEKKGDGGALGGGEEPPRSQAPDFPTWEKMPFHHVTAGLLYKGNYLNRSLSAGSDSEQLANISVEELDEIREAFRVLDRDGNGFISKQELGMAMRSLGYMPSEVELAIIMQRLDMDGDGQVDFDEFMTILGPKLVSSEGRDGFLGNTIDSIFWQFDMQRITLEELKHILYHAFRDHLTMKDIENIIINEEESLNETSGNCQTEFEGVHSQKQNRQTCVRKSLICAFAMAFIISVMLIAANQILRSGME
CRB3, G9a-methylated (human), sequence (Q9BUF7 27-120 limits assumed): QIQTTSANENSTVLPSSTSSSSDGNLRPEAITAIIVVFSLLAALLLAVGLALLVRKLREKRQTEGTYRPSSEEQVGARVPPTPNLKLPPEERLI

3× Flag-3×MBT (designed binder) showed a G9a-GST [1] of 16.2, a G9a-GST [2] of 12.1 and a G9a-GST [3] of 15.5. For the same substance, the G9a-GST [4] was 15.5, the G9a-GST [5] was 13.7 and the G9a-GST [6] was 13.6. The G9a-GST [7] was 14.1, the G9a-GST [8] was 26.5 and the G9a-GST [9] was 20. It also gave a G9a-GST [10] of 16, a G9a-GST [11] of 14.6 and a G9a-GST [12] of 20.8. The G9a-GST [13] was 15.2, the G9a-GST [14] was 14.9 and the G9a-GST [15] was 20.2. The G9a-GST [16] was 17.7, the G9a-GST [17] was 12.2 and the G9a-GST [18] was 14.3. It also gave a G9a-GST [19] of 16.1, a G9a-GST [20] of 12.1 and a G9a-GST [21] of 29.3. The G9a-GST [22] was 15.4, the G9a-GST [23] was 13.2 and the G9a-GST [24] was 12.7. For the same substance, the G9a-GST [25] was 14.5, the G9a-GST [26] was 14.5 and the G9a-GST [27] was 12.5. The G9a-GST [28] was 12.4, the GST Average SNR [29] was -0.436 and the GST Average SNR [30] was -1.03. The GST Average SNR [31] was 1.41, the GST Average SNR [32] was -0.055 and the GST Average SNR [33] was 0.998. It also gave a GST Average SNR [34] of 1.2, a GST Average SNR [35] of 1.35 and a GST Average SNR [36] of 0.378. The GST Average SNR [37] was 1.5.
